{
  "source": "patent US12138285B2",
  "about": "“Cholesterol reducing compositions and methods of use thereof” (The Broad Institute, Inc., priority 2019, dated 2024)",
  "type_in_all_cases": "biochemical",
  "key": {"[1]": {"test_system": "cholesterol", "assay": "Lysate experiments for cholesterol oxidoreductase activity (E. coli BL21 lysates expressing COR/HSD enzymes), substrate cholesterol", "conditions": "E. coli lysate expressing the enzyme, 100 μM cholesterol, 100 μM NADP+ and NAD+, 37° C. 12 h, LC-MS", "protocol": "(§1) Candidate cholesterol oxidoreductase genes were amplified from genomic DNA (for E. coprostanoligenes) and cloned into pET28b. DNA was extracted from stool samples (DNeasy PowerSoil Kit, Qiagen) (for CAG:217, CAG:251 and CAG:341) or purchased from Genewiz (Ordered sequences are listed in Table 6). PCR reactions were performed with Phusion High Fidelity polymerase, and PCR products were purified (Zymoclean gel DNA recovery kit, Zymo research). The resulting gene products were assembled into pET28b using Gibson assembly and transformed into Stellar™ Competent Cells. The identities of the constructs were confirmed with DNA sequencing and transformed into E. coli BL21 strains for expression. All constructs were grown in LB with kanamycin (50 μg/mL) with the exception of the strain expressing the homolog from CAG:180 which required growth in TB for protein expression. […]\n(§2) 500 mL of a culture of E. coli BL21 expressing one of the cholesterol oxidoreductase homologs were pelleted by centrifugation (20 min at 7,000 g and 4° C.), resuspended in 10 mL of ice-cold phosphate-buffered saline containing one cOmplete Protease Inhibitor cocktail tablet (Roche Diagnostics) and lysed by a cell disruptor (EmulsiFlex-C3, Avestin). […] After incubation at 37° C. for 12 h, the reaction mixtures were frozen until being analyzed using LC-MS. […]"}, "[2]": {"test_system": "coprostanol", "assay": "Lysate experiments for cholesterol oxidoreductase activity, substrate coprostanol", "conditions": "E. coli lysate expressing the enzyme, 100 μM coprostanol, 100 μM NADP+ and NAD+, 37° C. 12 h, LC-MS", "protocol": "as §1, §2"}, "[3]": {"test_system": "primary bile acids cholic acid and chenodeoxycholic acid", "assay": "Lysate experiments for cholesterol oxidoreductase activity, substrate primary bile acids", "conditions": "E. coli lysate expressing the enzyme", "protocol": "FIG. 12A-12B CORs from human-associated gut microbes accept cholesterol and coprostanol but not primary bile acids. Activity assay with E. coli lysates (PBS, pH=7.4) expressing one of the cholesterol oxidoreductase enzymes from human-associated microbes with FIG. 12A. […] EIC for the products of both reactions are shown.\n500 mL of a culture of E. coli BL21 expressing one of the cholesterol oxidoreductase homologs were pelleted by centrifugation (20 min at 7,000 g and 4° C.), resuspended in 10 mL of ice-cold phosphate-buffered saline containing one cOmplete Protease Inhibitor cocktail tablet (Roche Diagnostics) and lysed by a cell disruptor (EmulsiFlex-C3, Avestin). Cell debris was removed by ultracentrifugation (30 min at 20,000 g and 4° C.). Protein expression was confirmed by SDS-PAGE analysis using 4-20% Mini-PROTEAN TGX gels (Bio-Rad Laboratories). Gels were stained with Coomassie Blue for visualization. The clarified supernatant was used directly in the cell lysate assay described below. Cholesterol or coprostanol (5 μL of a 10 mM solution of cholesterol or coprostanol in methanol) was added to 500 μL of clarified supernatant with 100 μM of NADP^+ and NAD^+. After incubation at 37° C. for 12 h, the reaction mixtures were frozen until being analyzed using LC-MS."}, "[4]": {"test_system": "cholesterol", "assay": "In vitro activity assay of purified N-terminal His-tagged ECOP170 (cofactor dependence)", "conditions": "purified enzyme 1.5 μM, HEPES pH 7.5, 100 μM cholesterol, 100 μM NADP+ or NAD+", "protocol": "FIG. 11 In vitro activity assay of purified N-terminal His-tagged ECOP170 expressed in BL21 E. coli. Activity assay with ECOP170 (1.5 μM) in HEPES (pH=7.5, 50 mM, 300 mM NaCl) with 100 μM cholesterol and either 100 μM of NADP^+ (red) or 100 μM of NAD^+ (blue). EICs of 2 (rt 2.60, 385.244→108.988) are shown for both conditions.\nProteins were overexpressed using the procedure described above. Cells from 200 mL of culture were pelleted by centrifugation, resuspended in 10 mL of ice-cold lysis buffer (300 mM NaCl, 10 mM imidazole, 50 mM HEPES, pH 7.5) containing one cOmplete Protease Inhibitor cocktail tablet, and lysed by 4 min of continuous passage through a cell disruptor (EmulsiFlex-C3, Avestin) at 15,000 lbs per square inch. Cell debris was removed by ultracentrifugation (20 min at 20,000×g and 4° C.), and the cell-free extract was applied to 0.5 mL of HisPur Ni-NTA Resin (Thermo Scientific) pre-equilibrated with lysis buffer by gentle rocking at 4° C. for 2 h. Non-absorbed materials and weakly bound proteins were removed by washing the column with 2×25 mL of wash buffer (300 mM NaCl, 20 mM imidazole, 50 mM HEPES, pH 7.5). His6-tagged protein was eluted with 5 mL of elution buffer (300 mM NaCl, 200 mM imidazole, 50 mM HEPES, pH 7.5). […]"}},
  "note": "Entries after “also recorded” stand apart in the source; their conditions may differ.",
  "data": [
    {"molecule": "ECOP170: 3β-hydroxysteroid dehydrogenase / cholesterol oxidoreductase (COR, IsmA) enzyme from E. coprostanoligenes (protein) MSTCWLQGKTVVVTGASGGMGAGIAATLIKKHGCTVIGVARNEKKMLKFVDELGETYAKQFSYELFDVSSKENWEKFAEELQEKGVKVDVLINNAGILPKFKRFDRYSYEEIERAMNINFYSCVYSVKTMLPMLLQSSTPAIINIDSSAALMTLAGTSMYSASKAALKGFTEALRVEFQGKMFVGLVCPGFTKTDIFSGQGDADMSNGAKVMDMISTDCDKMVKMIMFGIEHKTPMQVHGFDAHAMSVFNRLMPVYGSKLFSSIMRMSNVDIFKEVFSD", "values": [
      {"measurement": "oxidation of cholesterol (1) to cholestenone (2)", "setting": "[1]", "result": "converts cholesterol (1) to cholestenone (2); also recorded: oxidized cholesterol to 2; also recorded: oxidized cholesterol to cholestenone"},
      {"measurement": "oxidation of coprostanol (4) to coprostanone (3)", "setting": "[2]", "result": "converts coprostanol (4) to coprostanone (3); also recorded: catalyzed the oxidation of coprostanol (4) to coprostanone (3); also recorded: showed activity towards coprostanol"},
      {"measurement": "oxidation of primary bile acids cholic acid and chenodeoxycholic acid to keto bile acids", "setting": "[3]", "result": "unable to oxidize the primary bile acids cholic acid and chenodeoxycholic acid; also recorded: did not oxidize the primary bile acids cholic acid and chenodeoxycholic acid"},
      {"measurement": "cofactor dependence of cholesterol oxidation", "setting": "[4]", "result": "showed a strict dependence on NADP^+ and not NAD^+"}
    ]}
  ]
}
